# Results as given in patent US8629107B2, “Genes and proteins associated with angiogenesis and uses thereof” (National Jewish Health, priority 2005, dated 2014).
# Tests used:
# Format in all cases: cell-based, murine
# MB114 cells [1] = test: angiogenic sprouting in rat tail collagen matrices; conditions: 5 days; for angiogenic sprouting of quiescent MB114 cell monolayers: MB114 cells stably expressing the transgene vs GFP, 10% FBS
# Procedure: (§1) The effect putative angiogenic agents had on MB114 cell activities were determined as follows: (i) cell proliferation using a [^3H]thymidine incorporation assay as described (Albig et al, 2006; Albig and Schiemann, 2004; Albig and Schiemann, 2005); (ii) cell invasion through Matrigel matrices using a modified Boyden-chamber assay as described (Albig et al, 2006; Albig and Schiemann, 2004; Albig and Schiemann, 2005); (iii) p38 MAPK phosphorylation using immunoblot analyses as described (Albig et al, 2006; Albig and Schiemann, 2004; Albig and Schiemann, 2005); (iv) angiogenic sprouting in rat tail collagen matrices as described (Albig et al, 2006; Albig and Schiemann, 2004); and (v) Hes1- and SBE-driven luciferase reporter gene assays as described (Albig et al, 2006; Albig and Schiemann, 2004; Albig and Schiemann, 2005).
# Finally, it was determined whether expression of these putative angiogenic factors could effect the angiogenic sprouting of quiescent MB114 cells monolayers. MB114 cells expressing either GFP or various putative angiogenic agents were grown to confluency, and subsequently were overlaid with rat tail collagen matrices. Angiogenic sprouting by quiescent EC monolayers was stimulated by inclusion of 10% FBS and allowed to proceed for 5 days. The quantity of invading angiogenic sprouts was determined by manual counting under a light microscope.
# Based on the findings described in the Examples above, the inventors hypothesized that MAGP-2 promotes angiogenesis by antagonizing Notch1 signaling. To test this hypothesis, it was first determined whether inhibiting Notch signaling in MB114 cells would enhance their angiogenic sprouting. In doing so, MB114 cells were transiently transfected with the Hes1-luciferase reporter gene (and pCMV-β-gal cDNA as control), and subsequently were treated overnight with or without the highly specific gamma-secretase inhibitor, DAPT (Sastre et al, 2001), which inhibits S3-mediated cleavage of Notch1 and, consequently, NICD-mediated induction of Hes1 expression. Afterward, luciferase and β-gal activities were determined. […] In this experiment, quiescent MB114 cell monolayers were overlaid with rat tail collagen matrices, and were induced to form angiogenic sprouts by addition of 10% FBS supplemented with or without DAPT (10 μM). Five days later the number of invading angiogenic spouts were quantified by manual counting on a light microscope. Based on these findings, the inventors conclude that Notch activation functions in mediating angiostasis in MB114 cells. […] Collectively, these findings indicate that Notch1 signaling antagonizes angiogenic sprouting in MB114 cells, and that downregulation of Notch1 signaling components is necessary for angiogenesis activation in MB114 cells.
# Having shown that Notch1 signaling mediates angiostasis in MB114 cells, the inventors next asked whether MAGP-2 promotes angiogenesis in MB114 cells via its ability to antagonize Notch signaling. To do so, MAGP-2-expressing MB114 cells were engineered to constitutively express active Notch1 NICD fragment in an attempt to overcome the block of Notch processing mediated by MAGP-2. More particularly, GFP-, MAGP-2-, and MAGP-2/N1ICD-expressing MB114 cells were transiently transfected with pHes1-luciferase and pCMV-β-gal cDNAs. Luciferase and β-gal activities were determined 48 h post-transfection. As the inventors observed previously, MAGP-2 expression reduced Hes1-luciferase activity in MB114 cells (FIG. 5C), a reaction that was bypassed by co-expression of NICD in these cells (FIG. 5C). […] In this experiment, quiescent monolayers of GFP-, MAGP-2-, and MAGP-2/N1ICD-expressing MB114 cells were overlaid with rat tail collagen matrices and incubated in the absence or presence of 10% FBS for 5 days. Afterward, the number of invading angiogenic sprouts were determined by manual counting under a light microscope.
# [2] = tested on: Hes1 promoter (Notch1 signaling); test: Hes1-driven luciferase reporter gene assay in MB114 cells; conditions: MB114 cells treated overnight with 10 μM
# Procedure: as §1
# MAGP-2 can interact physically with Notch1 and its ligand, Jagged-1 (Miyamoto et al, 2006; Nehring et al, 2005), resulting in the ectodomain shedding of both molecules from the cell surface. Notch signaling also plays an essential role in regulating normal vessel development and angiogenesis in mammals (Leong and Karsan, 2005; Shawber and Kitajewski, 2004). Given these two facts, the inventors hypothesized that MAGP-2 promotes angiogenesis by modulating Notch1 signaling. To test this hypothesis, first measured were changes in luciferase expression driven by a Hes1-luciferase reporter gene whose expression is induced by Notch1 activation (Iso et al, 2003). MB114 and HUVEC cells were transiently transfected either with pHes1-luciferase, pCMV-β-gal, and MAGP-2 cDNAs, or with pHes1-luciferase and pCMV-β-gal cDNAs and subsequently stimulated with rMAGP-2 (1 or 5 mg/ml). Afterward, luciferase and β-gal activities contained in detergent-solubilized cell extracts were measured. In addition, GFP- and MAGP-2-expressing MB114 cells were transiently transfected with pHes1-luciferase and pCMV-β-gal cDNAs, together with or without Jagged-1 cDNA as indicated. Afterward, luciferase and β-gal activities were measured as above.
# To further investigate the impact of MAGP-2 on Notch1 processing and NICD accumulation, the inventors took advantage of recent findings showing that the ability of TGF-β to induce Hes1 promoter activity requires Smad3 to interact physically with NICD (Blokzijl et al, 2003), a reaction that is dispensable for canonical Smad3-mediated signaling stimulated by TGF-β (Blokzijl et al, 2003). It was therefore reasoned that the ability of MAGP-2 to inhibit NICD production in ECs would reduce the capacity of TGF-β to induce luciferase expression driven by the Hes1 promoter, but not that driven by the synthetic Smad2/3-binding element (SBE). GFP- and MAGP-2-expressing MB114 cells were transiently transfected with either pHes1- or pSBE-luciferase, both together with pCMV-β-gal as indicated in FIG. 4B. Afterward, the resulting transfectants were stimulated overnight with increasing concentrations of TGF-β1 (0-5 ng/ml).
# Based on the findings described in the Examples above, the inventors hypothesized that MAGP-2 promotes angiogenesis by antagonizing Notch1 signaling. To test this hypothesis, it was first determined whether inhibiting Notch signaling in MB114 cells would enhance their angiogenic sprouting. […] Afterward, luciferase and β-gal activities were determined. […]
# MB114 cells [3] = test: cell invasion through Matrigel matrices, modified Boyden-chamber assay; conditions: MB114 cells stably expressing the transgene vs GFP; 48 h
# Procedure: as §1
# (§2) FIG. 1A show results from an experiment in which serum-starved MB114 cells, stably expressing either GFP or various putative angiogenic agents, were stimulated in the absence or presence of either bFGF (50 ng/ml) or EGF (10 ng/ml) for 24 h at 37° C. Differences in MB114 cell DNA synthesis was determined by measuring [^3H]thymidine incorporation into cellular DNA. […] In this experiment, invasion of MB114 cells expressing either GFP or various putative angiogenic agents through synthetic basement membranes was determined over 48 h using a modified Boyden-chamber assay.
# MB114 cells [4] = test: cell proliferation, [3H]thymidine incorporation assay; conditions: serum-starved MB114 cells stably expressing the transgene vs GFP; EGF 10 ng/ml, 24 h, 37° C.
# Procedure: as §1, §2
molecule,measurement,setting,value
"C[C@H](NC(=O)Cc1cc(F)cc(F)c1)C(=O)N[C@H](C(=O)OC(C)(C)C)c1ccccc1 [DAPT, reference compound]",number of invading angiogenic sprouts,"MB114 cells [1]; MB114 monolayers, 10% FBS with 10 μM compound vs untreated",significantly more
same,Hes1 promoter activity (Hes1-luciferase),[2],significantly inhibited
"CRELD-2: secretory protein stably expressed in MB114 cells by retroviral transduction (protein, UniProt Q9CYA0 23-350, looked up) Protein disulfide isomerase …: SRKPTMCQRCRTLVDKFNQGMANTARKNFGGGNTAWEEKTLSKYEFSEIRLLEIMEGLCDSSDFECNQLLEQQEEQLEAWWQTLKKEHPNLFEWFCVHTLKACCLPGTYGPDCQECQGGSERPCSGNGYCSGDGSRQGDGSCQCHTGYKGPLCIDCTDGFFSLQRNETHSICSACDESCKTCSGPSNKDCIQCEVGWARVEDACVDVDECAAETSPCSDGQYCENVNGSYTCEDCDSTCVGCTGKGPANCKECIAGYTKESGQCTDIDECSLEEKACKRKNENCYNVPGSFVCVCPEGFEETEDACVQTAEGKVTEENPTQPPSREDL",angiogenic sprouting of quiescent MB114 cell monolayers,MB114 cells [1],failed to significantly affect
same,MB114 cell invasion through synthetic basement membranes,MB114 cells [3],significantly induced
"AK002276: putative transmembrane protein stably expressed in MB114 cells by retroviral transduction (protein, listed as Mus musculus) MASRESGGSRAAALLLVLGVERSLALPKICTLCPGGMHNLSRVAAYCEDTSKLMQARCCLNQKGPILGLNLQNCSLKDPGPNFLQAYTAIIIDLQANPLKDDLANTFRGFTQLQTLILPQDVPCPGGSNAWDNVTSFKDKQICQGQRDLCNSTGSPEMCPENGSCASDGPGLLQCVCADGFHGYKCMRQGSFSLLMFFGILGSTTLAISILLWGTQRRKAKAS",proliferative response of MB114 cells to EGF ([3H]thymidine incorporation into cellular DNA),MB114 cells [4],significantly enhanced
same,angiogenic sprouting of quiescent MB114 cell monolayers,MB114 cells [1],failed to significantly affect
"matrillin-2: secretory protein stably expressed in MB114 cells by retroviral transduction (protein, UniProt O08746 24-956, looked up) Matrilin-2: RERPQARFPSRGRHVRMYPQTALLESSCENKRADLVFIIDSSRSVNTYDYAKVKEFILDILQFLDIGPDVTRVGLLQYGSTVKNEFSLKTFKRKSEVERAVKRMRHLSTGTMTGLAIQYALNIAFSEAEGARPLRENVPRIIMIVTDGRPQDSVAEVAAKARNTGILIFAIGVGQVDLNTLKAIGSEPHKDHVFLVANFSQIESLTSVFQNKLCTVHMCSVLEHNCAHFCLNTPGSYICKCKQGYILSTDQKTCRIQDLCATEDHGCEQLCVNMLGSFVCQCYSGYTLAEDGKRCTAVDYCASENHGCEHECVNAESSYLCRCHEGFALNSDKKTCSKIDYCASSNHGCQHECVNAQTSALCRCLKGFMLNPDRKTCRRINYCALNKPGCEHECVNTEEGHYCRCRQGYNLDPNGKTCSRVDHCAQQDHGCEQLCLNTEESFVCQCSEGFLINDDLKTCSRADYCLLSNHGCEYSCVNTDKSFACQCPEGHVLRSDGKTCAKLDSCALGDHGCEHSCVSSEDSFVCQCFEGYILRDDGKTCRRKDVCQDVNHGCEHLCVNSGESYVCKCLEGFRLAEDGKRCRRKNVCKSTQHGCEHMCVNNGNSYLCRCSEGFVLAEDGKHCKRCTEGPIDLVFVIDGSKSLGEENFETVKHFVTGIIDSLAVSPKAARVGLLQYSTQVRTEFTLRGFSSAKEMKKAVTHMKYMGKGSMTGLALKHMFERSFTQVEGARPPSTQVPRVAIVFTDGRAQDDVSEWASKAKANGITMYAVGVGKAIEEELQEIASEPIDKHLFYAEDFSTMGEISEKLKEGICEALEDSGGRQDSAAWDLPQQAHQPTEPEPVTIKIKDLLSCSNFAVQHRFLFEEDNLSRSTQKLFHSTKSSGNPLEESQDQCKCENLILFQNVANEEVRKLTQRLEEMTQRMEALENRLKYR",angiogenic sprouting of quiescent MB114 cell monolayers,MB114 cells [1],failed to significantly affect
"ECM-1: secretory glycoprotein stably expressed in MB114 cells by retroviral transduction (protein, UniProt Q61508 20-559, looked up) Extracellular matrix protein 1: ASEGAFKASDQREMTPERLFQHLHEVGYAAPPSPPQTRRLRVDHSVTSLHDPPLFEEQREVQPPSSPEDIPVYEEDWPTFLNPNVDKAGPAVPQEAIPLQKEQPPPQVHIEQKEIDPPAQPQEEIVQKEVKPHTLAGQLPPEPRTWNPARHCQQGRRGVWGHRLDGFPPGRPSPDNLKQICLPERQHVIYGPWNLPQTGYSHLSRQGETLNVLETGYSRCCRCRSDTNRLDCLKLVWEDAMTQFCEAEFSVKTRPHLCCRLRGEERFSCFQKEAPRPDYLLRPCPVHQNGMSSGPQLPFPPGLPTPDNVKNICLLRRFRAVPRNLPATDAIQRQLQALTRLETEFQRCCRQGHNHTCTWKAWEGTLDGYCERELAIKTHPHSCCHYPPSPARDECFAHLAPYPNYDRDILTLDLSRVTPNLMGQLCGSGRVLSKHKQIPGLIQNMTIRCCELPYPEQACCGEEEKLAFIENLCGPRRNSWKDPALCCDLSPEDKQINCFNTNYLRNVALVAGDTGNATGLGEQGPTRGTDANPAPGSKEE",angiogenic sprouting of quiescent MB114 cell monolayers,MB114 cells [1],significantly decreased
